T1: BMP-10 (UniProt O95393 317-424)
T1 sequence (looked up): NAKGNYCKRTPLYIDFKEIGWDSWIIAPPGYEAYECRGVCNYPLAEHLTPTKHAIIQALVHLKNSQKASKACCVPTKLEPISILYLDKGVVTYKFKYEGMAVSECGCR

T2: BMP-9 (UniProt Q9UK05 320-429)
T2 sequence (looked up): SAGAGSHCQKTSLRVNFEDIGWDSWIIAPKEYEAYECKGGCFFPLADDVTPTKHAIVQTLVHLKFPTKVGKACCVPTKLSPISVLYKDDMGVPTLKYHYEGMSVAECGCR

T3: activin A (human, UniProt P08476 311-426)
T3 sequence (looked up): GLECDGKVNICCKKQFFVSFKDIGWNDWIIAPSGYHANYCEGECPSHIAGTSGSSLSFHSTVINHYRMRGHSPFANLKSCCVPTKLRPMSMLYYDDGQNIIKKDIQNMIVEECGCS

T4: activin B (UniProt P09529 293-407)
T4 sequence (looked up): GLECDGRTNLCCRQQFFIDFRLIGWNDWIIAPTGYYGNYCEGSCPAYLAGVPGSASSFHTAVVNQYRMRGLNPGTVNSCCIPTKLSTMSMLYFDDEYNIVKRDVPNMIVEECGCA

T5: GDF-11 (UniProt O95390 299-407)
T5 sequence (looked up): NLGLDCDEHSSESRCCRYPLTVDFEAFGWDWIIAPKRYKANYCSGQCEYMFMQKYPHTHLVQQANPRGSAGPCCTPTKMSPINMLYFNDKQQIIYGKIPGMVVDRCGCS

T6: GDF-8 (UniProt O14793 267-375)
T6 sequence (looked up): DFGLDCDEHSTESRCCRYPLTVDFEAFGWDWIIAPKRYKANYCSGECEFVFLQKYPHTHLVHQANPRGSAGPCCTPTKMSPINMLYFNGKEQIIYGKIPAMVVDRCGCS


Key:
Assay in all cases: cell-based or functional assay
BMP-10 = molecular target: T1, BMP-10
BMP-9 = molecular target: T2, BMP-9
activin A = molecular target: T3, activin A
activin B = molecular target: T4, activin B
GDF-11 = molecular target: T5, GDF-11
GDF-8 = molecular target: T6, GDF-8

Row | Molecule | IC50, BMP-reporter HepG2 cell-based neutralization assay (BMP-10) [nM] | IC50, BMP-reporter HepG2 cell-based neutralization assay (BMP-9) [nM] | fold increase in neutralization potency relative to P75 (BMP-9) [fold] | IC50, TGFβ-reporter HEK293 cell-based neutralization assay (activin A) [nM] | IC50, TGFβ-reporter HEK293 cell-based neutralization assay (activin B) [nM] | IC50, TGFβ-reporter HEK293 cell-based neutralization assay (GDF-11) [nM] | IC50, TGFβ-reporter HEK293 cell-based neutralization assay (GDF-8) [nM] | fold increase in neutralization potency relative to P75 (activin A) [fold]
1 | P753 (hActRIIB T69H, 14 aa linker, IgG1-DL) (Fc fusion) | 2.9 | 2.1 |  | 1.6 | 2.4 | 1.5 | 1.4 | 1.5
2 | P1375 (hActRIIB L33W, 19 aa linker, IgG1 YTE-DL) (Fc fusion) ETRECIYYNANWELERTNQSGLERCEGEQDKRWHCYASWRNSSGTIELVKKGCWLDDFNCYDRQECVATEENPQVYFCCCEGNFCNERFTHLPEAGGPEVTYEPPPTGGGGSGGGGSGGGGSGGGGTHTCPPCPAPELLGGPSVFLFPPKPKDTLYITREPEVTCVVVDVSHEDPEVKFNWYVDGVEVHNAKTKPREEQYNSTYRVVSVLTVLHQDWLNGKEYKCKVSNKALPAPIEKTISKAKGQPREPQVYTLPPSRDELTKNQVSLTCLVKGFYPSDIAVEWESNGQPENNYKTTPPVLDSDGSFFLYSKLTVDKSRWQQGNVFSCSVMHEALHNHYTQKSLSLSPG | > 100 | > 1000 |  | 0.53 | 2 | 0.39 | 0.33 | 

Further lines, results first:

Row | IC50, BMP-reporter HepG2 cell-based neutralization assay (BMP-10) [nM] | IC50, BMP-reporter HepG2 cell-based neutralization assay (BMP-9) [nM] | fold increase in neutralization potency relative to P75 (BMP-9) [fold] | IC50, TGFβ-reporter HEK293 cell-based neutralization assay (activin A) [nM] | IC50, TGFβ-reporter HEK293 cell-based neutralization assay (activin B) [nM] | IC50, TGFβ-reporter HEK293 cell-based neutralization assay (GDF-11) [nM] | IC50, TGFβ-reporter HEK293 cell-based neutralization assay (GDF-8) [nM] | fold increase in neutralization potency relative to P75 (activin A) [fold] | Molecule
3 | 4 | 1.1 | 2 | 3.5 | 6 | 2.1 | 2 |  | P739 (hActRIIB G27E, 14 aa linker, IgG1-DL) (Fc fusion)
4 | 2.5 | 3.5 |  | 1.5 | 2.1 | 1.6 |  |  | P754 (hActRIIB T69Q, 14 aa linker, IgG1-DL) (Fc fusion)
5 | > 100 | > 1000 |  | 0.56 | 2 | 0.53 | 0.18 |  | P1372 (hActRIIB L33W, 14 aa linker, IgG1 YTE-DL) (Fc fusion) ETRECIYYNANWELERTNQSGLERCEGEQDKRWHCYASWRNSSGTIELVKKGCWLDDFNCYDRQECVATEENPQVYFCCCEGNFCNERFTHLPEAGGPEVTYEPPPTGGGGSGGGGSGGGGTHTCPPCPAPELLGGPSVFLFPPKPKDTLYITREPEVTCVVVDVSHEDPEVKFNWYVDGVEVHNAKTKPREEQYNSTYRVVSVLTVLHQDWLNGKEYKCKVSNKALPAPIEKTISKAKGQPREPQVYTLPPSRDELTKNQVSLTCLVKGFYPSDIAVEWESNGQPENNYKTTPPVLDSDGSFFLYSKLTVDKSRWQQGNVFSCSVMHEALHNHYTQKSLSLSPG

Source: patent US20260092096A1 (35PHARMA, published 2026)
